Assay results published in patent publication US20140096274A1 (published 2014).

Legend:
[1] = target: T1, human RANK-Fc (human, UniProt Q9Y6Q6 30-212); assay: SPR single cycle kinetics, hRANK-Fc captured at 20-40 RU, 1:1 fit
T1 construct: also called hRANK-Fc; hRANK-FC; not shown: Fc part of the bought fusion; not described
T1 sequence (looked up): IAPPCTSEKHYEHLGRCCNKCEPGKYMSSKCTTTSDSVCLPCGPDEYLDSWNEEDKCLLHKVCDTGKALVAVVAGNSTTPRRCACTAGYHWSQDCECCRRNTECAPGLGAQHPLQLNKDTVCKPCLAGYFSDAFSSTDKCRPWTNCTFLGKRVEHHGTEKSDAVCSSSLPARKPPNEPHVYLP
Description: (§1) Considering the high similarity between human RANKL and murine RANKL (>88%) the murine dimers were also tested for hRANK binding. Binding to hRANK-Fc and mRANK-Fc (both from R&D Systems) was recorded for five consecutive concentrations of murine flag RANKL WT, D1 (mD1) or D2 (mD2) (˜0.3-15 nM) using SPR with a single cycle kinetics based approach. The capture level of mRANK-Fc and hRANK-Fc was low (20-40 RU) in order to ensure 1:1 binding. Both WT and the D1 and D2 dimeric variants bound with high affinity towards the mRANK receptor and to the human RANK receptor (FIG. 16: Table 8).

[2] = target: T2, murine RANK-Fc (mouse, UniProt O35305 31-214); assay: SPR single cycle kinetics, mRANK-Fc captured at 20-40 RU, 1:1 fit
T2 construct: also called mRANK-Fc; mRANK-FC; not shown: Fc part of the bought fusion; not described
T2 sequence (looked up): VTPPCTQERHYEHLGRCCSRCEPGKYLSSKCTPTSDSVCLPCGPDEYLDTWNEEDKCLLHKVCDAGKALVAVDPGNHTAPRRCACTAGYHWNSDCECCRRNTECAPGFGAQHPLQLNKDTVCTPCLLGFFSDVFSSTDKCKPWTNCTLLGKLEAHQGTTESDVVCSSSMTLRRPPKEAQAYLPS
Description: as §1

[3] = target: T2, murine RANK-Fc; assay: ELISA dose response on RANK-Fc coated wells, global four parameter logistic fit
Description: The ability of dimer 1 and dimer 2 to compete with wild-type murine RANKL for binding to mRANK was investigated using a competitive ELISA. […] After washing off unbound RANKL, mRANK bound flag-mRANKL was detected by an anti-flag antibody. A RANKL dimer concentration dependant decrease in mRANK binding and right shift in the EC₅₀ of flag-mRANKL was observed (FIGS. 7 and 18B), indicating a competitive inhibition based mechanism. IC₅₀ values for dimer 1 and dimer 2 were calculated to be 4 nM by a global fit of the individual dose response curves using a four parameter logistic model.
As the concentration of flagRANKL WT used in the competitive ELISA was above its KD for mRANK-Fc, for mD2 also an EC₅₀ shift experiment was performed. A dose-response curve of 0-50 nM flagRANKL WT binding to RANK-Fc was recorded in the presence and absence of various fixed concentrations of D2 (3, 5, 11, 22 or 43 nM) (FIG. 18B and FIG. 7). […] Upon a global fit of the individual dose response curves using a four parameter logistic model, an EC₅₀ for flag-mRANKL WT of 0.6 nM (±0.04 nM) was obtained and for mD2 an A₂ value of 4 nM (±0.5 nM) was calculated, i.e. the concentration of inhibitor required to shift the dose response curve by a factor of 2.

[4] = target: T2, murine RANK-Fc; assay: SPR, mRANK-Fc captured at low density on C1 chip, 1:1 Langmuir fit, mean of three experiments
Description: SPR measurements were performed using ˜1500-2000 RU of captured mRANK-Fc on the surface of a CM5 sensor chip (FIGS. 15B and C). This is a density that results in a mean ratio of RANKL:RANK of approx 1:3 (52). […] (Table 5, below) In contrast, the ratio of binding of RANKL variants mD1 and mD2 to mRANK-Fc seems hardly to be affected by receptor density (Table 5). The values obtained after injecting 500 nM of the dimeric variants correlate to binding of 1.5 monomeric subunits by mD1 and 1.6 monomeric subunits by mD2.
Kinetic binding parameters were also measured for mD1 and mD2 binding to mRANK-FC in real time using SPR using murine RANKL-WT as a control (FIG. 15; table 8). RANKL dimer binding curves to mRANK-Fc captured at low density on the surface of a C1 sensorchip were recorded using concentrations ranging from 100 pM to 562 nM. At very low receptor density, RANKL proteins bind only one receptor molecule, allowing the data to be fitted to a Langmuir 1:1 interaction model (29). RANKL WT needed a very low density (<20 resonance units (RU)) to come close to a 1:1 ratio (FIG. 3A). […] Maximum binding of 5.5 RU is reached, which is slightly lower than the expected Rₘₐₓ value of 6.8 RU for a 1:1 ratio, but definitely larger than 3.4 RU, the Rₘₐₓ value expected for a binding ratio of 2 molecules of RANK per flag-mRANKL WT trimer. Similar to mRANKL WT, binding of RANKL mD1 or mD2 to mRANK-Fc results in slightly lower Rₘₐₓ values than expected for a 1:1 binding ratio: 24 RU D1 compared to 26 RU, and 20 RU D2 compared to 23 RU (FIG. 15A). These binding ratio's could be reached with mD1 and mD2 at densities of mRANK-Fc of <50 RU. The approximate 1:1 binding of RANKL proteins to mRANK-Fc allows fitting the data to the 1:1 Langmuir binding model.

Kd [1]: 0.104 nM
koff [1]: 0.000575 s⁻¹
kon [1]: 5.63e+06 M⁻¹ s⁻¹
Kd [2]: 0.0315 nM
koff [2]: 0.000189 s⁻¹
kon [2]: 6.14e+06 M⁻¹ s⁻¹
EC50 [3]: 0.6 nM
Ka [4]: 4.4e+10 M⁻¹
Kd [4]: 0.065 nM
koff [4]: 0.00034 s⁻¹
kon [4]: 5.9e+06 M⁻¹ s⁻¹
B1: murine flagRANKL WT (wild-type mRANKL containing an N-terminal flagtag) (ligand, mouse, UniProt O35235 160-316, looked up)
chain: EAQPFAHLTINAASIPSGSHKVTLSSWYHDRGWAKISNMTLSNGKLRVNQDGFYYLYANICFRHHETSGSVPTDYLQLMVYVVKTSIKIPSSHNLMKGGSTKNWSGNSEFHFYSINVGGFFKLRAGEEISIQVSNPSLLDPDQDATYFGAFKVQDID
notes: Trimeric; also called flag-mRANKL WT; mWT; not shown: N-terminal flagtag
